Measured values reported in US20080292632A1 (US Dept. of Health and Human Services, published 2008).

What was measured:
CD30-Fc fusion protein = biological target: T1, CD30-Fc fusion protein (human, UniProt P28908 19-385); assay: ELISA
T1 construct: extracellular domain; Negative control antigen; not shown: human IgG1 hinge and Fc of pRB-2k1-CD30
T1 sequence (looked up): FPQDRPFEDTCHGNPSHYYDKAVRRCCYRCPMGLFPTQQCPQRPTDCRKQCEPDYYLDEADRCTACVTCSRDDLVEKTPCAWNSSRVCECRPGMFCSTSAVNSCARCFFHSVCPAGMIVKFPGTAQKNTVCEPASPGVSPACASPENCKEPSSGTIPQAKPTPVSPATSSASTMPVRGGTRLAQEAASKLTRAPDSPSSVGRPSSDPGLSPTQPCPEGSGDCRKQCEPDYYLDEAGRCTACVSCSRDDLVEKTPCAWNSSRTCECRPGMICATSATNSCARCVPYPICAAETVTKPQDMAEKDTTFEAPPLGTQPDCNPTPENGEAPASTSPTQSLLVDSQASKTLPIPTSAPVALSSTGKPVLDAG

[1] = biological target: T2, IRTA3 extracellular domain-Fc fusion protein (human, UniProt Q96P31 18-573); assay: IRTA Fc-fusion
T2 construct: Whole entry named; also called IRTA3-Fc; IRTA3 (Fc-fusion); not shown: human IgG1 hinge and Fc
T2 sequence: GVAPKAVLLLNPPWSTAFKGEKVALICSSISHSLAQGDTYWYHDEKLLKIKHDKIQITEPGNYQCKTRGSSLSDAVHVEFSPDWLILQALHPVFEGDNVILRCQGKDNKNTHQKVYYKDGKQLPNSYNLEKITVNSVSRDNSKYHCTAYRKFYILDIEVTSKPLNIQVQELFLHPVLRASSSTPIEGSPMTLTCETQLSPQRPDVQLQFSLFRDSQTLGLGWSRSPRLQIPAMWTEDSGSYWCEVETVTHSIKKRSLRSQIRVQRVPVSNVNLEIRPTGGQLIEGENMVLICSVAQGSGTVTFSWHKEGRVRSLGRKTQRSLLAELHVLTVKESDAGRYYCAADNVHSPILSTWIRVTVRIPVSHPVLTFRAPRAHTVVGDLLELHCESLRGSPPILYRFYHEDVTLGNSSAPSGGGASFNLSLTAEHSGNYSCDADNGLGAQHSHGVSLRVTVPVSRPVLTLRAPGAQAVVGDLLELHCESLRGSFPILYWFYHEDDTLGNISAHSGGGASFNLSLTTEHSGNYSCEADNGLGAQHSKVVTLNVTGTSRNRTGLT
Procedure: (§1) Each Fc-fusion protein indicated on the top of the column was captured on ELISA plates using secondary antibody (goat anti-human IgG). After washing, 100 ng/50 μl/well of MAbs were added, followed by HRP-labeled goat anti-mouse IgG and TMBZ substrate. The signals in ELISA were normalized for the amounts of each Fc-fusion protein on the plates using HRP-goat anti-human Fc. The controls are MAbs 9E10 (anti-myc tag, IgG1), BerH2 (anti-CD30, IgG1), T408 (anti-CD30, IgG2a), T420 (anti-CD30, IgG2b) and HRP-goat anti-human Fc (1/2400 dilution). […] Two days after transfection, the cells were harvested and incubated with 200 ng/100 μl of each MAb, followed by PE-conjugated goat anti-mouse IgG F(ab′)2. […] In the positive control panels, the MAbs cross-reactive to other IRTAs were used. They are F26 (anti-IRTA1 and anti-IRTA2, IgG2b), F109 (anti-IRTA3, IgG2b), F47 (anti-IRTA4, IgG2a), and F69 (anti-IRTA5, IgG2a). BerH2 (anti-CD30, IgG1) was also used. “+” indicates more than 1.5-fold than that of the control; “++” indicates more than 10-fold mean fluorescence intensity than that of the negative control.
(§2) ELISA. In a typical indirect ELISA for the screening of hybridomas, microtiter plates (MaxiSorp; Nalge Nunc, Rochester, N.Y.) were coated with 100 ng/50 μl/well of goat anti-human IgG in phosphate buffered saline (PBS) for 2 hours at room temperature. Next, 50 ng/100 μl/well of IRTA2-Fc in blocking buffer (25% DMEM, 5% FBS, 25 mM HEPES, 0.5% bovine serum albumin, 0.1% sodium azide in PBS) was added to each well and incubated for 2 hours at room temperature. After washing with PBS containing 0.05% Tween 20, 50 μl of the hybridoma supernatants were added and incubated for 2 hours at room temperature. After washing, the bound MAbs were detected by a 2-hour incubation with horseradish peroxidase (HRP)-labeled goat anti-mouse IgG (Jackson ImmunoResearch, Grove, Pa.) followed by tetramethylbenzidine (TMB) substrate kit (Pierce, Rockford, Ill.). In some experiments, other IRTA-Fc fusion proteins were used instead of IRTA2-Fc.

[2] = biological target: T3, IRTA5 extracellular domain-Fc fusion protein (human, UniProt Q96LA6 17-307); assay: IRTA Fc-fusion
T3 construct: Whole entry named; also called IRTA5-Fc; IRTA5 (Fc-fusion); not shown: human IgG1 hinge and Fc
T3 sequence: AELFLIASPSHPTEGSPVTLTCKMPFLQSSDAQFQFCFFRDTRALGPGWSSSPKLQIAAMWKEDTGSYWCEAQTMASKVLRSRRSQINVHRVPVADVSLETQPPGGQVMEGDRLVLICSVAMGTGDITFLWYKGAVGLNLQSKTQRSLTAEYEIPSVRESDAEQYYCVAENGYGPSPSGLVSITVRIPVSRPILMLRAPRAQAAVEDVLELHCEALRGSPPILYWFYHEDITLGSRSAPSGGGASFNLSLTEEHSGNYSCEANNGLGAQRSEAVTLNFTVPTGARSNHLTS
Procedure: as §1, §2

[3] = biological target: T4, IRTA4 extracellular domain-Fc fusion protein (human, UniProt Q96LA5 20-401); assay: IRTA Fc-fusion
T4 construct: Whole entry named; also called IRTA4-Fc; IRTA4 (Fc-fusion); not shown: human IgG1 hinge and Fc
T4 sequence: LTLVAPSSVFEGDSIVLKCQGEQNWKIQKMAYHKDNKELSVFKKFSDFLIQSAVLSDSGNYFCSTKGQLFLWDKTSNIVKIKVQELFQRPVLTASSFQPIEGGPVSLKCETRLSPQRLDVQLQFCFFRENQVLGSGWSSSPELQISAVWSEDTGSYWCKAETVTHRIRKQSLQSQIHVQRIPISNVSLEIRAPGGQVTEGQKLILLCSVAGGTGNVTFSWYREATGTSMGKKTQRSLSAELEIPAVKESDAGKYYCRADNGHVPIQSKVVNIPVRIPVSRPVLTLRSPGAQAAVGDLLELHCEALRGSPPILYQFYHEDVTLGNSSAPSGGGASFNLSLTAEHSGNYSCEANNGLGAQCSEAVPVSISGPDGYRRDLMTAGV
Procedure: as §1, §2

Measured: binding result

B1: F25 (antibody, IgG2a, V domains shown)
VH: EVQLQQSGPELVKPGTSVKMSCKASGYSFTGYFMNWMMQNHGKSLEWIGRINLYNGDTFYNQKFKDKATLTVDKSSNTVHMEFRSLASEDSAVYYCASSLYYFDYWGQGTTFTVSS
VL: DIVMTQSHKFMSTSVGDRVNITCKASQDVGTNVAWYQQKPGQSPKLLIYWASTRQTGVPDRFTGSGSGTDFTLTISNVQSEDLSDYFCQQYSSYPLTFGAGTKLELKR
notes: mouse hybridoma MAb, IgG2a, kappa; also called MAb F25; biotin-MAb F25
no binding: all assays above
